Measurements published in PMC4231456, “HIV-1 Tat protein binds to TLR4-MD2 and signals to induce TNF-α and IL-10” (Retrovirology, 2013).

B1: recombinant human MD2 (natural protein, UniProt Q9Y6Y9 19-160, looked up)
chain: QKQYWVCNSSDASISYTYCDKMQYPISINVNPCIELKRSKGLLHIFYIPRRDLKQLYFNLYITVNTMNLPKRKEVICRGSDDDYSFCRALKGETVNTTISFSFKGIKFSKGKYKCVVEAISGSPEEMLFCLEFVILHQPNSN
notes: human MD2 (lymphocyte antigen 96), soluble recombinant; No catalogue number printed; also called rhMD2; hMD2; source: bought: R&D Systems

Assays:
[1] = biological target: GST-Tat 1-101 (HIV-1 Tat protein) (HIV-1); experiment: ELISA; competition: GST-Tat 1-101 or GST-Tat 1-45 (0.1 μM) pre-incubated 1 h at 37°C with increasing amounts of soluble rhMD2, rhTLR4-MD2, rhTLR4 or rhCD14, then 2 h on coated rhMD2 (or TLR4-MD2); OD 450 nm; K0.5 taken as an apparent dissociation constant
recombinant human TLR4 = biological target: T1, recombinant human TLR4 (human, UniProt O00206 24-631); experiment: ELISA; rh TLR4 coated at 1 μg/ml; MD2 at 1-10 μg/ml in solution; detected with anti-MD2 monoclonal antibodies; conditions: both partners purified
T1 construct: human Toll-like receptor 4 (TLR4), recombinant, used coated or soluble without MD2; also called rhTLR4; rh TLR4
T1 sequence (O00206 24-631): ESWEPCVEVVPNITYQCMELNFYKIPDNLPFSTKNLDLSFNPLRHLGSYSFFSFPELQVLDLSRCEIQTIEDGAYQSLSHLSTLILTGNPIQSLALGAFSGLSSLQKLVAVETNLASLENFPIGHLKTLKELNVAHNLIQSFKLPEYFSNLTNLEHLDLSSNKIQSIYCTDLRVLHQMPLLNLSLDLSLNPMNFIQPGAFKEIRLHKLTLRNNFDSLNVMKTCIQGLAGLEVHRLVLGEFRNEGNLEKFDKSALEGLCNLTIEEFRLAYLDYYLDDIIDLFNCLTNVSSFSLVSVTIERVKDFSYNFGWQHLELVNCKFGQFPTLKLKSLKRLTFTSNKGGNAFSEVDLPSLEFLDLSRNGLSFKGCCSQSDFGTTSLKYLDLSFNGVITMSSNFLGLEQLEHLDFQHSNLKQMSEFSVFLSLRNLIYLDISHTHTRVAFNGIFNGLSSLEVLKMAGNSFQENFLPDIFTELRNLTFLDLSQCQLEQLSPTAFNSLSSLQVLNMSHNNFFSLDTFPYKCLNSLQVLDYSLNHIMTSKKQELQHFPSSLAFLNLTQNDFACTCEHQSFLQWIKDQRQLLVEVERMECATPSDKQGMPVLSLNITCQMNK

Sequence of GST-Tat 1-101 (HIV-1 Tat protein) (HIV-1) (P04614 whole entry): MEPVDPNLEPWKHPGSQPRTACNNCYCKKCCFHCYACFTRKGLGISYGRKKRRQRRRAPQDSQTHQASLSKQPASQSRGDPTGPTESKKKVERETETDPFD

| Molecule | IC50 [1] [nM] | binding result (recombinant human TLR4) | percent inhibition of Tat binding to coated MD2 with soluble MD2 at 1 μg/ml [1] [%] |
| --- | --- | --- | --- |
| recombinant human TLR4-MD2 complex (from UniProt O00206 24-631; Q9Y6Y9 19-160) | 1 | – | – |
| B1 | 4 | binds | > 95 |
